# The supplement of paper PMC7877785
# ± gives the uncertainty stated by the source.
# Assay: self-splicing fitness, log relative to wild type (ln ratio); higher = more splicing; Tetrahymena group I intron in knt gene, E. coli kanamycin selection, DiMSum; sequences stand for … in CUCUCU…GGAGGGAAAAGUUAUCAGGCAUGCACCUGGUAGCUAGUCUUUAAACCAAUAGAUUGCAUCGGUUUAAAAGGCAAGACCGUCAAAUUGCGGGAAAGGGGUCAACAGCCGUUCAGUACCAAGUCUCAGGGGAAACUUUGAGAUGGCCUUGCAAAGGGUAUGGUAAUAAGCUGACGGACAUGGUCCUAACCACGCAGCCAAGUCCUAAGUCAACAGAUCUUCUGUUGAUAUGGAUGCAGUUCACAGACUAAAUGUCGGUCGGGGAAGAUGUAUUCUUCUCAUAAGAUAUAGUCGGACCUCUCCUUAAUGGGAGCUAGCGGAUGAAGUGAUGCAACACUGGAGCCGCUGGGAACUAAUUUGUAUGCGAAAGUAUAUUGAUUAGUUUUGGAGUACUCGUGGUCG
# In short: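 Pooled colonies went to amplicon sequencing on an Illumina HiSeq 2500 after six replicate transformations. The plates were LB agar with 100 μg/mL carbenicillin, 50 μM IPTG and 0.2% rhamnose, with or without 25 μg/mL kanamycin, incubated overnight at 37°C or 30°C. The E. coli BL21(DE3) library had all eight P1ex-region intron nucleotides randomised, the intron placed in the knt kanamycin-resistance gene on pET-22b(+). DiMSum fitness is the error-weighted combination of replicate fold changes, kanamycin against none, normalised to wild type.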
Sequence,self-splicing fitness (ln) (30 °C),self-splicing fitness (ln) (37 °C)
AACAAGCAAUAUUACGACCG,-0.711 ± 0.12,0.209 ± 0.16
AACAAGCAAUAUUACGACCU,0.219 ± 0.086,0.125 ± 0.1
AACAAGCAAUAUUACGAUCC,-1.13 ± 0.077,0.0585 ± 0.1
AACAAGCAAUAUUACGAUGU,-1.64 ± 0.077,-0.411 ± 0.094
AACAAGCAAUAUUACGCAUC,-2.41 ± 0.15,-1.77 ± 0.18
AACAAGCAAUAUUACGCGCC,-0.296 ± 0.15,-0.317 ± 0.18
AACAAGCAAUAUUACGCGGU,-3.69 ± 0.14,-2.03 ± 0.11
AACAAGCAAUAUUACGCUAU,-2.25 ± 0.075,-1.52 ± 0.074
AACAAGCAAUAUUACGGACU,-0.217 ± 0.063,0.775 ± 0.099
AACAAGCAAUAUUACGGAUA,-3.95 ± 0.2,-2.18 ± 0.12
AACAAGCAAUAUUACGGAUG,-2.4 ± 0.08,-2.37 ± 0.096
AACAAGCAAUAUUACGGAUU,-1.38 ± 0.071,-0.641 ± 0.077
AACAAGCAAUAUUACGGCCC,-0.249 ± 0.12,-0.0486 ± 0.2
AACAAGCAAUAUUACGGCCU,0.0767 ± 0.082,0.355 ± 0.1
AACAAGCAAUAUUACGGCUU,-1.14 ± 0.081,-0.539 ± 0.084
AACAAGCAAUAUUACGGGGU,-3.36 ± 0.11,-2.28 ± 0.13
AACAAGCAAUAUUACGGUCG,-0.247 ± 0.08,-0.152 ± 0.086
AACAAGCAAUAUUACGGUGA,-0.546 ± 0.059,-0.765 ± 0.073
AACAAGCAAUAUUACGUACG,-1.65 ± 0.082,-0.628 ± 0.094
AACAAGCAAUAUUACGUCGC,-3.63 ± 0.14,-2.21 ± 0.17
AACAAGCAAUAUUACGUCUC,-3.51 ± 0.2,-1.89 ± 0.16
AACAAGCAAUAUUACGUGCA,-0.969 ± 0.048,-0.28 ± 0.065
AACAAGCAAUAUUACGUGCC,-0.971 ± 0.086,-0.503 ± 0.12
AACAAGCAAUAUUACGUGCU,-2.57 ± 0.16,-1.51 ± 0.14
AACAAGCAAUAUUACGUGGC,-3.61 ± 0.18,-2.52 ± 0.14

Sequence,self-splicing fitness (ln) (30 °C),self-splicing fitness (ln) (37 °C)
AACAAGCAAUAUUACGUUGC,-2.83 ± 0.18,-3.21 ± 0.32
AACCAGCAAUAUUACGAGCA,-1.02 ± 0.092,-0.505 ± 0.1
AACCAGCAAUAUUACGAGCC,-2.85 ± 0.17,-1.72 ± 0.16
AACCAGCAAUAUUACGAGUU,-3.37 ± 0.16,-1.78 ± 0.14
AACCAGCAAUAUUACGCAGU,-2.6 ± 0.11,-1.35 ± 0.11
AACCAGCAAUAUUACGCCAU,-2.81 ± 0.15,-1.42 ± 0.11
AACCAGCAAUAUUACGCCCC,-0.331 ± 0.12,-0.517 ± 0.17
AACCAGCAAUAUUACGCCGU,-1.03 ± 0.079,0.182 ± 0.1
AACCAGCAAUAUUACGCCUA,-0.252 ± 0.076,-0.557 ± 0.086
AACCAGCAAUAUUACGCGCC,-0.668 ± 0.1,-0.521 ± 0.12
AACCAGCAAUAUUACGCGGA,-2.05 ± 0.093,-0.49 ± 0.072
AACCAGCAAUAUUACGCGUA,-0.386 ± 0.063,-0.313 ± 0.073
AACCAGCAAUAUUACGCUGC,-2.31 ± 0.18,-3.1 ± 0.24
AACCAGCAAUAUUACGCUGU,-3.49 ± 0.15,-1.4 ± 0.095
AACCAGCAAUAUUACGGGGG,-2.43 ± 0.095,-1.02 ± 0.091
AACCAGCAAUAUUACGGUCA,-0.301 ± 0.045,0.0924 ± 0.062
AACCAGCAAUAUUACGUCUG,-3.9 ± 0.17,-2.54 ± 0.16
AACCAGCAAUAUUACGUGAA,-0.843 ± 0.074,-0.516 ± 0.087
AACCAGCAAUAUUACGUGGU,-3.19 ± 0.12,-3.15 ± 0.17
AACCAGCAAUAUUACGUUGC,-3.21 ± 0.12,-3.05 ± 0.19
AACGAGCAAUAUUACGAAUG,-4.03 ± 0.28,-3.18 ± 0.25
AACGAGCAAUAUUACGAAUU,-2.78 ± 0.11,-2.16 ± 0.12
AACGAGCAAUAUUACGACUA,-1.81 ± 0.21,-0.213 ± 0.18
AACGAGCAAUAUUACGAGAA,-1.87 ± 0.22,-1.56 ± 0.33
AACGAGCAAUAUUACGAUCC,-2.01 ± 0.38,–

Sequence,self-splicing fitness (ln) (30 °C),self-splicing fitness (ln) (37 °C)
AACGAGCAAUAUUACGCAAU,-4.26 ± 0.36,-2.45 ± 0.27
AACGAGCAAUAUUACGCAUC,-3.65 ± 0.3,-0.331 ± 0.18
AACGAGCAAUAUUACGCCAG,-4.01 ± 0.37,-1.56 ± 0.32
AACGAGCAAUAUUACGCGUC,-3.01 ± 0.22,-2.85 ± 0.38
AACGAGCAAUAUUACGCUAC,–,-1.86 ± 0.31
AACGAGCAAUAUUACGGCCA,-3.21 ± 0.18,-1.37 ± 0.13
AACGAGCAAUAUUACGGGCC,-4.29 ± 0.39,-3.18 ± 0.47
AACGAGCAAUAUUACGUCAU,-2.98 ± 0.1,-2.44 ± 0.13
AACGAGCAAUAUUACGUGUC,-2.08 ± 0.11,-2.17 ± 0.23
AACGAGCAAUAUUACGUUAA,-3.45 ± 0.36,-2.2 ± 0.24
AACGAGCAAUAUUACGUUCA,-2.32 ± 0.17,-1.87 ± 0.23
AACUAGCAAUAUUACGAAAU,-2.01 ± 0.09,-0.94 ± 0.1
AACUAGCAAUAUUACGAACC,-0.5 ± 0.2,-0.373 ± 0.21
AACUAGCAAUAUUACGAGAU,-2.52 ± 0.13,-1.65 ± 0.14
AACUAGCAAUAUUACGAGCC,-0.792 ± 0.47,-1.17 ± 0.34
AACUAGCAAUAUUACGCAAG,-3.14 ± 0.14,-1.77 ± 0.15
AACUAGCAAUAUUACGCACU,-0.218 ± 0.084,-0.0139 ± 0.11
AACUAGCAAUAUUACGCAUC,-2.73 ± 0.14,-2.28 ± 0.22
AACUAGCAAUAUUACGCCAA,-2.83 ± 0.21,-1.63 ± 0.16
AACUAGCAAUAUUACGCCGG,-1.63 ± 0.14,-1.19 ± 0.17
AACUAGCAAUAUUACGCCUG,-1.08 ± 0.12,-1.43 ± 0.13
AACUAGCAAUAUUACGCGAG,-1.82 ± 0.11,-0.501 ± 0.12
AACUAGCAAUAUUACGCGUC,-1.95 ± 0.12,-1.65 ± 0.14
AACUAGCAAUAUUACGGAUG,-2.26 ± 0.067,-1.03 ± 0.072
AACUAGCAAUAUUACGGCCU,-0.472 ± 0.09,-0.0804 ± 0.095
